Measurements published in US20110262366A1 (published 2011).
Starred links: 1 amine or outer side, 2 acyl side, 3 side chain; linkers in the order of their positions; H or OH if unused. No end group written: not given here. NH(CH2)3(OCH2CH2)2O(CH2)3NH = C(CN[*:1])COCCOCCOCCCN[*:2]; Oregon Green = Oregon Green fluorescent reporter dye

Target: T1, NP-1/Fc (Neuropilin-1/Fc, R&D Systems)
T1 construct: Bought reagent; also called Npn-1
Assay: competition with 250 pM ^125I-VEGF165 on NP-1/Fc-coated plates, 4° C., 2 h
Protocol: The next day all wells, even control wells lacking NP-1/Fc, were blocked 2 hrs with blocking buffer (1% BSA in D-PBS with 0.05% v/v Tween-20) then washed 4× with PBST (D-PBS/0.05% v/v Tween-20) before starting the assay. All points were derived from triplicate wells, and for each set of replicates in NP-1/Fc-coated wells, a companion set in the absence of the receptor was included. […] After addition of the appropriate solutions, microtiter plates were incubated at 4° C. for 2 hours. Following the incubation, plates were hand-washed 5 times with D-PBS containing 0.05% Tween-20 and 0.1% BSA. […] VEGF₁₆₅ (Cat. No. 100-20) was obtained from Peprotech.

T1 sequence (Q9QWJ9 22-855): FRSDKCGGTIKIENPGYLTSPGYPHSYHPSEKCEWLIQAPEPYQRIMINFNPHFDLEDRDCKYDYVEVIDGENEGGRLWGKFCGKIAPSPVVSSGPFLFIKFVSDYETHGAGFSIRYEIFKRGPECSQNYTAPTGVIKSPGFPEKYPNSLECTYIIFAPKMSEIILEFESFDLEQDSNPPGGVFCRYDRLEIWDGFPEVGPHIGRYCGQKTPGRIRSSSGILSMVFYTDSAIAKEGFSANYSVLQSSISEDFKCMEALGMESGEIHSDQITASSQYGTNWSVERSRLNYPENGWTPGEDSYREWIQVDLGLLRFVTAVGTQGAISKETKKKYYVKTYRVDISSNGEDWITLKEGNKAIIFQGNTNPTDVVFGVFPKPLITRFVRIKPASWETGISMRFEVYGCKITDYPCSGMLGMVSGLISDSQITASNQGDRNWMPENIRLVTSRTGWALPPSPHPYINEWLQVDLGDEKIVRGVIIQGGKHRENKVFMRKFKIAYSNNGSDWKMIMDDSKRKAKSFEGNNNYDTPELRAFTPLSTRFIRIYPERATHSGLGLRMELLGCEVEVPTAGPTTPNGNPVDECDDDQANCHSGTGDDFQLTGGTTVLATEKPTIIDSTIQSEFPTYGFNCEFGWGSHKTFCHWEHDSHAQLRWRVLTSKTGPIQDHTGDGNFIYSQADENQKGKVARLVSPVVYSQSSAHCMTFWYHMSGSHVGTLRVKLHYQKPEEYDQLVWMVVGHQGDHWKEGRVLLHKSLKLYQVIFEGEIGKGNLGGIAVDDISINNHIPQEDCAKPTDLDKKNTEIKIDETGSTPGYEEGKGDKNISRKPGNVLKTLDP

IC50: 8 µM
B1: Tetramer BRU-346: TKPPR-K(RPPKT)-K[K(RPPKT)TKPPR]-G-Z-OG (peptide)
chain: TKPPRKRPPKTKKRPPKTTKPPRG-{NH(CH2)3(OCH2CH2)2O(CH2)3NH-Oregon Green}
modifications: also: branched on lysine core: TKPPR units linked via C-terminal Arg to Lys side chains, letters 7-11 and 14-18 written reversed, not a linear chain
notes: also called Reverse Tetramer; tetrameric TKPPR linked to a different scaffold through the C-terminal amino acid
